Reference: patent US20210040221A1 (published 2021)
Numbering of substitutions follows the chain as printed. Where two headings read alike, the source gives them in different places. Blank lines part the entries; values can stand above or below the binder they belong to.

What was measured:
[1] = biological target: T1, recombinant human CD25 his tagged (UniProt P01589 22-213); test: SPR (Biacore 2000)
T1 chain: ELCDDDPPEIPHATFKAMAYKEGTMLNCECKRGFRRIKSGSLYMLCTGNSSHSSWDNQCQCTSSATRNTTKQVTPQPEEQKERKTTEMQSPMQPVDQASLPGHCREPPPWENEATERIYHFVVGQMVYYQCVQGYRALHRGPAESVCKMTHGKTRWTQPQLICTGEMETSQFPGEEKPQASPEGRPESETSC

[2] = biological target: T1, recombinant human CD25 his tagged; test: SPR (Biacore 2000)

B2: Antibody 1 (antibody, V domains shown)
VH: EVQLLESGGGLVQPGGSLRLSCAASGFTFSSYGMSWVRQAPGKGLELVSTINGYGDTTYYPDSVKGRFTISRDNSKNTLYLQMNSLRAEDTAVYYCARDRDYGNSYYYALDYWGQGTLVTVSS
VL: EIVLTQSPGTLSLSPGERATLSCRASSSVSFMHWLQQKPGQAPRPLIYATSNLASGIPDRFSGSGSGTDYTLTISRLEPEDFAVYYCQQWSSNPPAFGQGTKLEIK
Kd [2]: 4.7 nM

B3: Antibody 2 (antibody, V domains shown)
VH: B2 VH
VL: B2 VL with E1Q, A42S
Kd [2]: 6.1 nM

Results, then the binder that gave them:

Kd [1]: 6.1 nM
B1: Antibody 3 (antibody, V domains shown)
VH: B2 VH with S75A, Y95F
VL: B2 VL

Kd [1]: 5.5 nM
B4: Antibody 4 (antibody, V domains shown)
VH: B2 VH with S75A, Y95F
VL: B2 VL with E1Q, A42S
